± gives the uncertainty stated by the source.
Assay: protein stability index of a GFP-peptide fusion (yeast GPS) (PSI 1-4); higher = more stable; sorted into four equal gates, so the index is relative within each strain
Outline: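 The protein stability index of a peptide was calculated by multiplying its read frequency in each gate by that gate's number and adding the products. The peptides were tiled 17-residue stretches of yeast proteins, fused downstream of GFP on a Cherry-expressing plasmid and carried in yeast as a pooled library. Mid-log cultures in leucine-free medium were sorted into four equal gates by GFP/Cherry ratio, and each gate's plasmids were PCR-amplified and Illumina-sequenced.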

| Sequence | protein stability index (doa10∆) | protein stability index (pdr5∆) | protein stability index (san1∆) | protein stability index (ubr1∆) |
| --- | --- | --- | --- | --- |
| FNIISMTLKEMYQMITM [SMC4] | 1.92 ± 0.074 | 1.97 ± 0.054 | 2.22 ± 0.075 | 2.15 ± 0.042 |
| KEQADIYAKQQEQLKQM [ARP7] | 1.75 ± 0.065 | 2.25 ± 0.086 | 1.78 ± 0.14 | 2.88 ± 0.066 |
| LLEETQAKLKKNVETLE [SMC4] | 3.39 ± 0.092 | 3.18 ± 0.085 | 3.31 ± 0.08 | 3.51 ± 0.071 |
| DFDDSTAQEINFKMLVL [IRR1] | 2.59 ± 0.064 | 2.66 ± 0.053 | 2.67 ± 0.058 | 2.9 ± 0.054 |
| IERIGHLLSINYGEKEE [PCI8] | 1.32 ± 0.06 | 1.33 ± 0.055 | 1.2 ± 0.092 | 1.18 ± 0.049 |
| PFHDPEARLFNIWGTVR [ECM29] | 1.33 ± 0.26 | 1.43 ± 0.22 | – | – |
| VDSLDPFSEGVTFSVMP [SMC4] | 2.92 ± 0.086 | 2.39 ± 0.065 | 2.2 ± 0.13 | 3.1 ± 0.072 |
| LPKAWISLAVEGEPVNS [COR1] | 1.38 ± 0.12 | 2.1 ± 0.14 | 2.84 ± 0.14 | 1.79 ± 0.1 |
| YLEDIIGTANYKPLIEE [SMC4] | 2.95 ± 0.1 | 3.28 ± 0.11 | 3.17 ± 0.077 | 3.23 ± 0.076 |
| IHKRYIDLEAPVQIVKR [RPS20] | 2.5 ± 0.13 | 2.78 ± 0.15 | 2.51 ± 0.14 | 2.96 ± 0.12 |
| LRRRTASHNVRRIPKRM [POP1] | 2.98 ± 0.065 | 3.02 ± 0.062 | 2.85 ± 0.052 | 2.75 ± 0.042 |
| TSFEQGEITFDGIGGLT [RPT4] | 3.1 ± 0.085 | 3.18 ± 0.074 | 3.05 ± 0.066 | 3.49 ± 0.059 |
| NKGRAVYINPSGEKIDF [BRR2] | 2.98 ± 0.13 | 2.76 ± 0.1 | 2.91 ± 0.071 | 3.17 ± 0.098 |
| VSTKTNEYRLAFYQVTP [RPL22A] | 1.86 ± 0.038 | 2.19 ± 0.04 | 2.6 ± 0.056 | 2.48 ± 0.048 |
| MSDLFTFDWFIKTRTVH [ISW2] | 2.88 ± 0.099 | 3.17 ± 0.099 | 2.76 ± 0.093 | 3.21 ± 0.072 |
| EMKTQAAELQEKPLTPL [SNF6] | 2.97 ± 0.19 | 3.14 ± 0.12 | 2.8 ± 0.088 | 2.89 ± 0.087 |
| GEKNSDDYSNEDNEMLE [YJR042W/NUP85] | – | – | 2.06 ± 0.29 | 1.89 ± 0.14 |
| AIGYPTLPSVGHTLINN [RPP0] | 3.06 ± 0.21 | 2.65 ± 0.13 | – | – |
| TLLSPKDNGMLIIDGQI [RPO21] | 2.59 ± 0.076 | 2.29 ± 0.078 | 2.81 ± 0.074 | 1.78 ± 0.058 |
| KWPEYVRLQRQKKILSI [RPL8B] | 1.18 ± 0.061 | 1.16 ± 0.056 | 1.14 ± 0.098 | 1.17 ± 0.039 |
| QQLDSFNQFVDYTLQDI [RPB2] | 2.48 ± 0.094 | 2.64 ± 0.1 | 2.75 ± 0.052 | 2.43 ± 0.086 |
| NNNGNSAASKKKKNKNK [SRP21] | 3.09 ± 0.092 | 3 ± 0.12 | 3.15 ± 0.057 | 3.14 ± 0.057 |
| KFSDLKFILQILQILNL [YML103C/NUP188] | 3.05 ± 0.15 | 2.12 ± 0.29 | 3.48 ± 0.13 | – |
| EGDELENKTKKDNDKNL [SRB4] | 3.33 ± 0.078 | 3.2 ± 0.077 | 3.23 ± 0.055 | 3.27 ± 0.077 |
| AIRKNGQIDFWYQFSNS [SIN4] | 2.09 ± 0.087 | 2.08 ± 0.08 | 1.77 ± 0.082 | 2.52 ± 0.056 |
| VLYQSNATHDEDEFIVQ [SWP82] | 3.05 ± 0.041 | 3.14 ± 0.038 | 3.11 ± 0.039 | 3.151 ± 0.028 |
| GSQKTFEIDDEHRIRVF [RPS6A] | 1.75 ± 0.089 | 2.76 ± 0.14 | 1.97 ± 0.16 | 2.5 ± 0.21 |

| Sequence | protein stability index (doa10∆) | protein stability index (pdr5∆) | protein stability index (san1∆) | protein stability index (ubr1∆) |
| --- | --- | --- | --- | --- |
| EAQANLLTAKHGMTLRE [RPO21] | 2.98 ± 0.18 | 3.11 ± 0.099 | 3.14 ± 0.063 | 2.8 ± 0.11 |
| NVDGNIKIVYALTTIKG [RPS18A] | – | 1.49 ± 0.18 | – | 1.23 ± 0.11 |
| QRMHAIHEIDERLAKVN [NNF1] | 1.44 ± 0.093 | 2.59 ± 0.14 | 2.42 ± 0.085 | 2.14 ± 0.061 |
| IWLKDFIAVGQILPESQ [SIR3] | – | 2.37 ± 0.28 | – | – |
| GVANTDTAGEESQQQDE [SWI3] | 3.45 ± 0.1 | 3.55 ± 0.085 | 3.33 ± 0.062 | 3.43 ± 0.086 |
| QRKTNGASNGDDSNGGN [BRN1] | 3.12 ± 0.14 | 2.92 ± 0.23 | 3.71 ± 0.17 | 3.64 ± 0.15 |
| KENGQLIGAATKFKGGK [SEC65] | 1.7 ± 0.057 | 1.65 ± 0.073 | 1.54 ± 0.11 | 2.17 ± 0.072 |
| LKMQQQQQQQQQQQQQQ [GAL11] | 2.69 ± 0.084 | 2.89 ± 0.073 | 2.62 ± 0.073 | 2.64 ± 0.067 |
| DDRDHFGKKRLDLAGPL [RPB2] | – | 2.85 ± 0.16 | 3.2 ± 0.21 | 3.31 ± 0.16 |
| KLLFQELMAMNITPRLY [RPB2] | 1.27 ± 0.1 | 1.39 ± 0.066 | 1.24 ± 0.13 | 1.43 ± 0.048 |
| VVETITSLLNKVLKSGS [RRP42] | 2.67 ± 0.11 | 2.37 ± 0.067 | 2.54 ± 0.085 | 2.45 ± 0.051 |
| QKRLEAGALNLASPEVK [DIS3] | – | 2.64 ± 0.18 | – | 2.82 ± 0.081 |
| NLLPKKSAKTAKASQEL [HTA2] | 2.92 ± 0.092 | 3.05 ± 0.12 | 2.87 ± 0.11 | 3.18 ± 0.048 |
| HFQDQKNKKIEVYTKTI [POP7] | 3.19 ± 0.11 | 2.83 ± 0.12 | 3.23 ± 0.084 | 2.7 ± 0.086 |
| SIVEECDARFDEKTIEE [RPC17] | 2.98 ± 0.14 | 3.05 ± 0.088 | 3.09 ± 0.11 | 2.68 ± 0.21 |
| KEAVFKSLGVKSLGGGA [FAS2] | 3.26 ± 0.078 | 3.36 ± 0.12 | 3.25 ± 0.069 | 3.41 ± 0.092 |
| DLINILEKKGFSEVYEY [LIN1] | 3.44 ± 0.17 | 3.21 ± 0.29 | 3.3 ± 0.099 | 3.17 ± 0.12 |
| IRAQNFKSALANLEDII [RRP6] | 1.89 ± 0.06 | 1.75 ± 0.062 | 2.29 ± 0.091 | 1.41 ± 0.047 |
| IMNLITNEPCGAQFSRS [RPN4] | – | 3.1 ± 0.3 | – | 2.96 ± 0.17 |
| EASSLGYLDDSEILIIS [IRR1] | 2.1 ± 0.048 | 1.85 ± 0.037 | 1.91 ± 0.1 | 1.87 ± 0.036 |
| TSPGFGVSSPGFSPTSP [RPO21] | 2.7 ± 0.077 | 2.66 ± 0.071 | 2.5 ± 0.058 | 2.93 ± 0.043 |
| NIIESIANFSRAGKYEL [YJR042W/NUP85] | 2.86 ± 0.087 | 2.96 ± 0.086 | 2.87 ± 0.051 | 2.44 ± 0.042 |
| MFSPLVDSGSNDAMAGG [RPO21] | 3.3 ± 0.16 | – | 3.37 ± 0.26 | – |
| VDIGGKQHAVLMLGSVN [RRP4] | 2.06 ± 0.052 | 2.66 ± 0.052 | 2.68 ± 0.06 | 2.6 ± 0.037 |
| VKNLSLMSCISVGTDPM [RPB2] | 1.88 ± 0.067 | 1.67 ± 0.061 | 2.48 ± 0.058 | 2.43 ± 0.063 |
| PDPNFENSIGYNNRKCW [PRP8] | 3.02 ± 0.098 | 2.97 ± 0.1 | 2.98 ± 0.21 | 3.11 ± 0.12 |
| KTIEVTAEINCFMHLLV [RPN3] | – | 1.77 ± 0.26 | 1.78 ± 0.2 | 1.67 ± 0.19 |
